# From patent US20210364527A1 (QUANTUM SI, published 2021)
# Like-named read-outs stand apart in the source and are kept apart here.
# T1: LA peptide LAKLDEESILKQK (XAKLDEESILKQK, X = L)
# T1 construct: Immobilized on the biolayer interferometry sensor
# T1 peptide: LAKLDEESILKQK
# T2: IA peptide IAKLDEESILKQK (XAKLDEESILKQK, X = I)
# T2 construct: Immobilized on the biolayer interferometry sensor
# T2 peptide: IAKLDEESILKQK
# T3: VA peptide VAKLDEESILKQK (XAKLDEESILKQK, X = V)
# T3 construct: Immobilized on the biolayer interferometry sensor
# T3 peptide: VAKLDEESILKQK
# T4: F peptide FAKLDEESILKQK (XAKLDEESILKQK, X = F)
# T4 construct: Immobilized on the biolayer interferometry sensor
# T4 peptide: FAKLDEESILKQK
# T5: Y peptide YAKLDEESILKQK (XAKLDEESILKQK, X = Y)
# T5 construct: Immobilized on the biolayer interferometry sensor
# T5 peptide: YAKLDEESILKQK
# T6: W peptide WAKLDEESILKQK (XAKLDEESILKQK, X = W)
# T6 construct: Immobilized on the biolayer interferometry sensor
# T6 peptide: WAKLDEESILKQK
# Experiments:
# Assay in all cases: BLI heatmap
# [1] = target: T1, LA peptide LAKLDEESILKQK …
# [2] = target: T2, IA peptide IAKLDEESILKQK …
# [3] = target: T3, VA peptide VAKLDEESILKQK …
# [4] = target: T4, F peptide FAKLDEESILKQK (XAKLDEESILKQK, …)
# [5] = target: T5, Y peptide YAKLDEESILKQK (XAKLDEESILKQK, …)
# [6] = target: T6, W peptide WAKLDEESILKQK (XAKLDEESILKQK, …)
# [7] = target: T1, LA peptide LAKLDEESILKQK …
# [8] = target: T2, IA peptide IAKLDEESILKQK …
# [9] = target: T3, VA peptide VAKLDEESILKQK …
# [10] = target: T4, F peptide FAKLDEESILKQK (XAKLDEESILKQK, …)
Binder,binding result [1],binding result [2],binding result [3],binding result [4],binding result [5],binding result [6],binding result [7],binding result [8],binding result [9],binding result [10]
PS406 (other) MPDATTTPRTKTLTRTARPPLHKVILVNDDFTPREFVVRLLKAEFRTTGDEAQRIMITAHMKGSCVVAVFTREIAESKATRATETARAEGFPLLFTTEPEE,no binding,no binding,no binding,binds,binds,binds,–,–,–,–
PS391 (other) MGQTVEKPRVEGPGTGLGGSWRVIVRNDDHNTFDHVARTLARFIPGVSLERGHEIAKVIHTTGRAVVYTGHKEAAEHYWQQLKGAGLTMAPLEQG,binds,–,–,binds,binds,–,–,–,–,–
PS553 (other) MPASASAVTEPPVSLPEAAAPRPKDRPKRQPRYHVILWNDDDHTYQYVVAMLRQLFGHPPEKGFTLAKQVDKDGRVVVLTTTKEHAELKRDQIHAFGADRLLARSKGSMSASIEPEASTG,–,–,–,–,–,–,binds,binds,binds,no binding
PS563 (other) MSSRSATAYPEVEDDTSDQLQPLYHVILLNDEDHTYDYVIEMLQKIFGFPESKAFSHAVEVDTKGTTILLTCDLEQAERKRDLIHSYGPDWRLPRSLGSMAAVVEPAAG,–,–,–,–,–,–,binds,binds,binds,no binding
PS571 (other) MTSSGASQPSILEETERKPRLSDGPWKVVLWDDDFHTYEYVIEMLMDVCQMPWEKAFQHAVEVDTRKKTIVFFGELEHAEFVHERILNYGPDPRMGTSKGSMTATLEK,–,–,–,–,–,–,binds,binds,binds,no binding
PS368 (other) MASAPSTTLDKSTQVVKKTYPNYKVIVLNDDLNTFDHVANCLIKYIPDMTTDRAWELTNQVHYQGQAIVWTGPQEQAELYHQQLRREGLTMAPLEAA,binds,no binding,no binding,binds,binds,binds,–,–,–,–
PS369 (other) MTSTLRARPARDTDLQHRPYPHYRIIVLDDDVNTFQHVVNCLVTFLPGMTRDQAWAMAQQVDGEGSAVVWTGPQEQAELYHVQLGNHGLTMAPLEPV,binds,–,–,binds,binds,–,–,–,–,–
PS554 (other) MSDSASATVEVQADPPADATARSQPTPARSTGSKPKRQPRYHVVLWNDDDHTYEYVIAMLRRLFGIEPEKGFRIAEEVDQSGRAVVLTTTREHAELKRDQIHAFGADRLLARSKGSMSASIEPEA,–,–,–,–,–,–,binds,binds,binds,no binding
PS552 (other) MSKTSTLPEVESESAQKLKYQPPYHVILLNDDDHSYVYVITMLKELFGHPEQKGYQLADAVDKQGRAIVFTTTREHAELKQEQIHAYGPDPTIPRCKGAMTAVIEPAE,–,–,–,–,–,–,binds,binds,binds,no binding
PS573 (other) MSQTPVIEETTVKDPVKTGGPWKVVLWDDDEHTYDYVIEMLMEVCVMTMEQAFHHAVEVDTQKKTVVYSGEFEHAEHIQELILEYGPDPRMAVSKGSMSATLEKS,–,–,–,–,–,–,binds,binds,binds,no binding

# More lines, now with the values ahead:
binding result [1],binding result [2],binding result [3],binding result [4],binding result [5],binding result [6],binding result [7],binding result [8],binding result [9],binding result [10],Binder
no binding,no binding,no binding,–,no binding,no binding,–,–,–,–,PS429 (other) MSVQEEVLEEVKTKERVNKQNQIIVFNDDVNTFDHVIDMLIATCDHDPIQAEQCTMLIHYKGKCEVKTGDYDDLKPRCSKLLDAGISAEIQ
–,–,–,–,–,–,no binding,no binding,no binding,no binding,PS562 (other) MSDQQSMVAEPEVVVHTQDEKKLEKQNKRKKQPRYNVVLWDDTDHSYDYVVLMMKQLFHHPIETGFQIAKQVDKGGKAICLTTTMEHAELKRDQIHAFGKDDLIARCTGSMSATIEPVPE
–,–,–,–,–,–,no binding,no binding,no binding,no binding,PS561 (other) MAELQTAVVEPTTRPEQDEKQSQSRPKRQPRYNVILWDDPDHSYDYVIMMLKELFGHPRQRGHQMAEEVDTTGRVICLTTTMEHAELKRDQIHAYGSDEGITRCKGSMSASIEPVPE
–,–,–,–,–,–,no binding,no binding,no binding,no binding,PS576 (other) MASTQTPDLNEITEESTKSTGGPWRVVLWDDNEHTYEYVIEMLVEICMMTVEKAFLHAVQVDKEKRTVDFSGELEHAEHVQERILNYGADPRMSNSKGSMSATLER
–,–,–,–,–,–,no binding,no binding,no binding,no binding,PS564 (other) MFEEVVSVAVAEPKTKKQSRTKPKRQPPYHVILWDDTDHTFDYVIKMMGELFRMPREKGYQLAKEVDTSGRAICMTTTLELAELKRDQIHAFGRDDASAHCKGSMSATIEPAEG
–,–,–,–,–,–,–,no binding,no binding,no binding,PS569 (other) MYSKNQIKIYCSEDDKGQTATPLLEKKPKFAPLYHVILWDDNTHTYEYVIKLLMSLFRMTFEKAYQHTLEVDKKGRTICITTHLEKAELKQEQISNFGPDILMQNSKGPMSATIEPAN
–,–,–,–,–,–,no binding,no binding,no binding,binds,PS577 (other) MSASSSQPGTTTKPDLDIQPRLLPPFHVILENDEFHSMEFVIDTLRKVLGVSIERAYQLMMTAHESGQAIIWTGPKEVAELKYEQVIGFHEKRSDGRDLGPLGCRIEPAV
–,–,–,–,–,–,no binding,no binding,no binding,no binding,PS567 (other) MADYEDAGEDALEDDFDHGTVTVAPQKPEPKKQSENKRQANRQPRYNVLLWDSEDHTFEYVEKMLRELFGHIKKQCQIIAEQVDQEGRAVVLTTTLEHAELKRDQIHAYGKDQLEGSKGSMWSTIEAVD
–,–,–,–,–,–,no binding,no binding,no binding,binds,PS574 (other) MANATPTPDVVPEEETETRTRRQPPYAVVLHNDDTNTMDFVVTVLRKVFGYTVEKCVELMLEAHTQGKVAVWIGALEVAELKADQIKSFGPDPHVTKNGHPLGVTVEPAA
–,–,–,–,–,–,no binding,no binding,no binding,binds,PS572 (other) MSSEELSLQTRPKRQPPFGVILHNDDLNSFDYVIDSIRKVFHYELEKCFQLTLEAHETGRSLLWTGTLEGAELKQELLLSCGPDPIMLDKGGLPLKVTLEELPQ
no binding,no binding,no binding,–,no binding,binds,–,–,–,–,PS377 (other) MADISKSRPEIGGPKGPQFGDSDRGGGVAVITKPVTKKKFKRKSQTEYEPYWHVLLHHDNVHTFEYATGAIVKVVRTVSRKTAHRITMQAHVSGVATVTTTWKAQAEEYCKGLQMHGLTSSIAPDSSFTH
no binding,no binding,no binding,–,no binding,no binding,–,–,–,–,PS431 (other) MIISSVKSSPSTETLSRTELQLGGVWRVVVLNDPVNLMSYVMMIFKKIFGFNETVARRHMLEVHEKGRSVVWSGLREKAEAYVFTLQQWHLTAVLESDETH
